This passage reports Emax (MFI) and Emax (OD450) results from patent US20250222125A1, “Anti-FGFR2b Antibodies, Conjugates and Methods of Use” (BeiGene, Ltd., priority 2024, published 2025).

Test [1] addresses human FGFR2c on cells (human) (UniProt P21802). The test is described as follows: flow cytometry, human FGFR2c OE cells.
In test [2] the target is human FGFR2b protein (recombinant, coated on ELISA plates) (human) (UniProt P21802). The experiment in a line: ELISA, plate-coated human FGFR2b.

Sequence of human FGFR2c on cells (human) (P21802 22-821): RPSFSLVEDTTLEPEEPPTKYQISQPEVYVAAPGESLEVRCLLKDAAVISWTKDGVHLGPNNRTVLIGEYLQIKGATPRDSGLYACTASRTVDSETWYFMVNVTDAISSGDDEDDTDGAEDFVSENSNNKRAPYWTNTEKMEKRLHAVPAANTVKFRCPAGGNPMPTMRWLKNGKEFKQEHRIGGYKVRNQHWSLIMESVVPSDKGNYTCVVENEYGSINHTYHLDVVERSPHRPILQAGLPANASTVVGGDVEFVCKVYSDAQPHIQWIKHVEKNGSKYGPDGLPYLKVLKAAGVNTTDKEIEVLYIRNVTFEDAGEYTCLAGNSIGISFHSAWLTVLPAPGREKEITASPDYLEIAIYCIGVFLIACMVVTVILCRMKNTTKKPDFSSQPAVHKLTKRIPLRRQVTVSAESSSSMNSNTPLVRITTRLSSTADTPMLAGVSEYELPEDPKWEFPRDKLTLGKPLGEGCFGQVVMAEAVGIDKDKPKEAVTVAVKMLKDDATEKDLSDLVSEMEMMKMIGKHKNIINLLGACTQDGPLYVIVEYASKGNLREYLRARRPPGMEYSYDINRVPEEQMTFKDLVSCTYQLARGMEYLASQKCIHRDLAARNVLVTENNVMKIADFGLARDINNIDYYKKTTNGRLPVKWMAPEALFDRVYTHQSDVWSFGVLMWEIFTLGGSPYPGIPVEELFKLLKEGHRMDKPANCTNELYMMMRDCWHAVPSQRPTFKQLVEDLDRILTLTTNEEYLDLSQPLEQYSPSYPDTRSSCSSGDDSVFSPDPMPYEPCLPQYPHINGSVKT

Take Isotype IgG control CB-6 (antibody): the Emax (MFI) in test [1] came to 27 MFI. The Emax (OD450) in test [2] was 0.08 OD450.
